Numbering of substitutions follows the chain as printed.
Assays:
[1] = target: recombinant human B7H3-Fc protein (human) (UniProt Q5ZPR3); experiment: ELISA; row B7H3-Fc; well 3 of 3
PD-L1 [2] = experiment: ELISA; row PDL1-Fc; well 2 of 3
monkey B7H3-His (monkey) [3] = experiment: ELISA; row Monkey; well 3 of 3
rat B7H3-His (rat) [4] = target: T1, rat B7H3-His (rat) (UniProt Q7TPB4); experiment: ELISA; row Rat; well 2 of 3
T1 sequence (looked up): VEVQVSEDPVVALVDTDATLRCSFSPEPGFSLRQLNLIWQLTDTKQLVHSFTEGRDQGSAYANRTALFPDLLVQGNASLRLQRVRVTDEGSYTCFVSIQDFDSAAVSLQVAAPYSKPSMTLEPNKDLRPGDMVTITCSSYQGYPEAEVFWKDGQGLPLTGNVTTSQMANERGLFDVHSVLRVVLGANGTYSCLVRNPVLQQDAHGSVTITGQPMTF

hB7H3-His (human) [5] = target: hB7H3-His (human) (UniProt Q5ZPR3); experiment: ELISA; row B7H3-his; well 3 of 3
mouse B7H3-His (mouse) [6] = target: T2, mouse B7H3-His (mouse) (UniProt Q8VE98); experiment: ELISA; row Mouse-2 (mB7H3); well 1 of 3
T2 sequence (looked up): T1 sequence (looked up) with R33A, A62S, D131N, L156V, M214L

PD-L1 [7] = experiment: ELISA; row PDL1-Fc; well 3 of 3
HN3-Fc [8] = experiment: ELISA; row HN3-Fc; well 2 of 3
mouse B7H3-His (mouse) [9] = target: T2, mouse B7H3-His (mouse); experiment: ELISA; row Mouse-2 (mB7H3); well 3 of 3
mouse B7H3-His (mouse) [10] = target: T2, mouse B7H3-His (mouse); experiment: ELISA; row Mouse-1 (msB7H3); well 3 of 3
HN3-Fc [11] = experiment: ELISA; row HN3-Fc; well 1 of 3
B7H3 R&D [12] = experiment: ELISA; row B7H3 R&D; well 1 of 3
hB7H3-His (human) [13] = target: hB7H3-His (human) (UniProt Q5ZPR3); experiment: ELISA; row B7H3-his; well 2 of 3
hB7H3-His (human) [14] = target: hB7H3-His (human) (UniProt Q5ZPR3); experiment: ELISA; row B7H3-his; well 1 of 3
human B7H3 (human) [15] = target: human B7H3 (human) (UniProt Q5ZPR3); experiment: ELISA; row Human; well 3 of 3
Irrelevant antigen [16] = experiment: ELISA; row Irrelevant antigen; well 2 of 3
mouse B7H3-His (mouse) [17] = target: T2, mouse B7H3-His (mouse); experiment: ELISA; row Mouse-1 (msB7H3); well 1 of 3
rat B7H3-His (rat) [18] = target: T1, rat B7H3-His (rat); experiment: ELISA; row Rat; well 3 of 3
monkey B7H3-His (monkey) [19] = experiment: ELISA; row Monkey; well 2 of 3
B7H3 R&D [20] = experiment: ELISA; row B7H3 R&D; well 2 of 3
Irrelevant antigen [21] = experiment: ELISA; row Irrelevant antigen; well 1 of 3
Irrelevant antigen [22] = experiment: ELISA; row Irrelevant antigen; well 3 of 3
[23] = target: recombinant human B7H3-Fc protein (human) (UniProt Q5ZPR3); experiment: ELISA; row B7H3-Fc; well 1 of 3
human B7H3 (human) [24] = target: human B7H3 (human) (UniProt Q5ZPR3); experiment: ELISA; row Human; well 2 of 3
mouse B7H3-His (mouse) [25] = target: T2, mouse B7H3-His (mouse); experiment: ELISA; row Mouse-2 (mB7H3); well 2 of 3
mouse B7H3-His (mouse) [26] = target: T2, mouse B7H3-His (mouse); experiment: ELISA; row Mouse-1 (msB7H3); well 2 of 3
HN3-Fc [27] = experiment: ELISA; row HN3-Fc; well 3 of 3
monkey B7H3-His (monkey) [28] = experiment: ELISA; row Monkey; well 1 of 3
[29] = target: recombinant human B7H3-Fc protein (human) (UniProt Q5ZPR3); experiment: ELISA; row B7H3-Fc; well 2 of 3
rat B7H3-His (rat) [30] = target: T1, rat B7H3-His (rat); experiment: ELISA; row Rat; well 1 of 3
B7H3 R&D [31] = experiment: ELISA; row B7H3 R&D; well 3 of 3
human B7H3 (human) [32] = target: human B7H3 (human) (UniProt Q5ZPR3); experiment: ELISA; row Human; well 1 of 3
PD-L1 [33] = experiment: ELISA; row PDL1-Fc; well 1 of 3

Sequence of hB7H3-His (human) (Q5ZPR3 29-461 limits assumed): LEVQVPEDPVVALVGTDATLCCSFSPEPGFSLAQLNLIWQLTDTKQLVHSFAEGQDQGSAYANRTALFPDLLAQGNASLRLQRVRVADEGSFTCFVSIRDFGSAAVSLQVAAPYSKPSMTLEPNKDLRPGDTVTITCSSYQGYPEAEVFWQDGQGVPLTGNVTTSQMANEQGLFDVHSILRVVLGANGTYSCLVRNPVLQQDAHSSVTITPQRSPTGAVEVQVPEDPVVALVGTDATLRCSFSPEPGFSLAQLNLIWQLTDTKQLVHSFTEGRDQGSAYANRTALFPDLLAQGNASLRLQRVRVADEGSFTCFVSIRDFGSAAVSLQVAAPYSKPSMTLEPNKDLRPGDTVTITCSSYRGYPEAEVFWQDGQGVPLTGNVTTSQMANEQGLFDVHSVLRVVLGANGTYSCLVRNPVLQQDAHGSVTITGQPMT
Sequence of PD-L1 (Q9NZQ7 19-238): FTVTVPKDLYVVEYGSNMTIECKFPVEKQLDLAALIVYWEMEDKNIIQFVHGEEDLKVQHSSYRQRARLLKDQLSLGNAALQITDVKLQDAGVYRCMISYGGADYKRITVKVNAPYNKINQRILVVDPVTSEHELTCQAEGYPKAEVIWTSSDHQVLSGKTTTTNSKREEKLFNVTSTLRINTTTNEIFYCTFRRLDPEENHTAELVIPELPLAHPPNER
Sequence of human B7H3 (human) (Q5ZPR3 29-466 limits assumed): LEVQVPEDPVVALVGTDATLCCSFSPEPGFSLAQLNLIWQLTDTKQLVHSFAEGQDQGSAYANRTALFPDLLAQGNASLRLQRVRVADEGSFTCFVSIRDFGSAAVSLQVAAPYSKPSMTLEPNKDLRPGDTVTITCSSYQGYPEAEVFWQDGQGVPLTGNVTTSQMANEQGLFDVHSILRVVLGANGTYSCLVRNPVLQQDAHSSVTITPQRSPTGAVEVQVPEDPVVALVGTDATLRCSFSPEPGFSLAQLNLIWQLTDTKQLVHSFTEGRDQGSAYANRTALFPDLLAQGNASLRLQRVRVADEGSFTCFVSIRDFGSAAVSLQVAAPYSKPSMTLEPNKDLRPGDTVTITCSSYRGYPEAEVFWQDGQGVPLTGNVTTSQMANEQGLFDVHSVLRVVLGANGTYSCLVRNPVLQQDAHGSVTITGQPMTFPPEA
Sequence of recombinant human B7H3-Fc protein (human) (Q5ZPR3 29-466 limits assumed): as above

ELISA reading (name not given) [1]: 1.59
ELISA reading (name not given) (PD-L1 [2]): 0.0812
ELISA reading (name not given) (monkey B7H3-His (monkey) [3]): 1.65
ELISA reading (name not given) (rat B7H3-His (rat) [4]): 1.01
ELISA reading (name not given) (hB7H3-His (human) [5]): 0.813
ELISA reading (name not given) (mouse B7H3-His (mouse) [6]): 0.157
ELISA reading (name not given) (PD-L1 [7]): 0.0749
ELISA reading (name not given) (HN3-Fc [8]): 0.0541
ELISA reading (name not given) (mouse B7H3-His (mouse) [9]): 0.184
ELISA reading (name not given) (mouse B7H3-His (mouse) [10]): 0.133
ELISA reading (name not given) (HN3-Fc [11]): 0.0545
ELISA reading (name not given) (B7H3 R&D [12]): 0.991
ELISA reading (name not given) (hB7H3-His (human) [13]): 0.812
ELISA reading (name not given) (hB7H3-His (human) [14]): 0.811
ELISA reading (name not given) (human B7H3 (human) [15]): 1.44
ELISA reading (name not given) (Irrelevant antigen [16]): 0.0634
ELISA reading (name not given) (mouse B7H3-His (mouse) [17]): 0.14
ELISA reading (name not given) (rat B7H3-His (rat) [18]): 1.06
ELISA reading (name not given) (monkey B7H3-His (monkey) [19]): 1.59
ELISA reading (name not given) (B7H3 R&D [20]): 0.993
ELISA reading (name not given) (Irrelevant antigen [21]): 0.0531
ELISA reading (name not given) (Irrelevant antigen [22]): 0.0624
ELISA reading (name not given) [23]: 1.61
ELISA reading (name not given) (human B7H3 (human) [24]): 1.57
ELISA reading (name not given) (mouse B7H3-His (mouse) [25]): 0.145
ELISA reading (name not given) (mouse B7H3-His (mouse) [26]): 0.156
ELISA reading (name not given) (HN3-Fc [27]): 0.0521
ELISA reading (name not given) (monkey B7H3-His (monkey) [28]): 1.59
ELISA reading (name not given) [29]: 1.59
ELISA reading (name not given) (rat B7H3-His (rat) [30]): 0.981
ELISA reading (name not given) (B7H3 R&D [31]): 1.07
ELISA reading (name not given) (human B7H3 (human) [32]): 1.48
ELISA reading (name not given) (PD-L1 [33]): 0.0652
Substance: commercial anti-human B7H3 hybridoma antibody 376.96
